Paper PMC4926470

B1: human Rspo1 (R-spondin 1): N137Q (protein)
parent chain: MRLGLCVVALVLSWTHLTISSRGIKGKRQRRISAEGSQACAKGCELCSEVNGCLKCSPKLFILLERNDIRQVGVCLPSCPPGYFDARNPDMNKCIKCKIEHCEACFSHNFCTKCKEGLYLHKGRCYPACPEGSSAANGTMECSSPAQCEMSEWSPWGPCSKKQQLCGFRRGSEERTRRVLHAPVGDHAACSDTKETRRCTVRRVPCPEGQKRRKGGQGRRENANRNLARKESKEAGAGSRRRKGQQQQQQQGTVGPLTSAGPA
B2: human Rspo1 (R-spondin 1): Q163N/L165T (protein)
parent chain: B1 parent chain
B3: human Rspo1 (R-spondin 1): tunicamycin (protein)
parent chain: B1 parent chain
B4: human Rspo1 (R-spondin 1): castanospermine (protein)
parent chain: B1 parent chain
B5: human Rspo2: N160Q (protein)
parent chain: MQFRLFSFALIILNCMDYSHCQGNRWRRSKRASYVSNPICKGCLSCSKDNGCSRCQQKLFFFLRREGMRQYGECLHSCPSGYYGHRAPDMNRCARCRIENCDSCFSKDFCTKCKVGFYLHRGRCFDECPDGFAPLEETMECVEGCEVGHWSEWGTCSRNNRTCGFKWGLETRTRQIVKKPVKDTILCPTIAESRRCKMTMRHCPGGKRTPKAKEKRNKKKKRKLIERAQEQHSVFLATDRANQ
B6: human Rspo2: E136N (protein)
parent chain: B5 parent chain
B7: human Rspo3: N137Q (protein)
parent chain: MHLRLISWLFIILNFMEYIGSQNASRGRRQRRMHPNVSQGCQGGCATCSDYNGCLSCKPRLFFALERIGMKQIGVCLSSCPSGYYGTRYPDINKCTKCKADCDTCFNKNFCTKCKSGFYLHLGKCLDNCPEGLEANNHTMECVSIVHCEVSEWNPWSPCTKKGKTCGFKRGTETRVREIIQHPSAKGNLCPPTNETRKCTVQRKKCQKGERGKKGRERKRKKPNKGESKEAIPDSKSLESSKEIPEQRENKQQQKKRKVQDKQKSVSVSTVH
B8: human Rspo3: tunicamycin (protein)
parent chain: B7 parent chain

Experiments:
[1] = Western densitometry, % in media, 48 h; details: control: wild type
[2] = AHA pulse-chase, intracellular protein; details: glycan lost; control: wild type
[3] = secreted protein in media at 37 °C, Western; details: glycan lost; control: wild type
[4] = Western densitometry, % in media; details: glycan gained; control: wild type
[5] = Western blot of conditioned media; details: control: untreated

Row | Protein | expression_or_secretion, other: percent of total protein in media ([1]; glycan lost) | degradation_or_half_life, half_life [3] | further results
1 | B1 | decreases, 32% vs 56% | no change, ~48 vs >48 | degradation_or_half_life, half_life [2]: decreases, 0.6 vs 0.9
2 | B2 | – | – | expression_or_secretion, fold_change [4]: increases
3 | B3 | – | – | expression_or_secretion ([5]; glycan lost): decreases
4 | B4 | – | – | expression_or_secretion ([5]; glycan changed form): decreases
5 | B5 | decreases, 18% vs 34% | decreases, 12 vs 36 | –
6 | B6 | – | – | expression_or_secretion, other: percent of total protein in media ([1]; glycan gained): increases, two-fold vs 34%
7 | B7 | decreases, 44% vs 67% | no change, >48 vs >48 | –
8 | B8 | – | – | expression_or_secretion ([5]; glycan lost): decreases
